Laboratory results: patent publication US20240052034A1

Target: PD-1 on PD-1 reporter Jurkat cells (UniProt Q15116)
Test: cell-based or functional assay

PD-1 on PD-1 reporter Jurkat cells, sequence (Q15116 25-288 limits assumed): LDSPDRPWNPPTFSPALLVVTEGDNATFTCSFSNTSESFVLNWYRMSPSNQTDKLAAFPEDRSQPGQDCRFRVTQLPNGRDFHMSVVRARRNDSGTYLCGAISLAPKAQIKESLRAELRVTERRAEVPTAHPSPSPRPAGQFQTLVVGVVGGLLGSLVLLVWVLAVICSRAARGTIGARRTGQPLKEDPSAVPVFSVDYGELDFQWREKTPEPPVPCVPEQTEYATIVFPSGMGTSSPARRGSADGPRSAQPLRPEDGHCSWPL

EC50 of SHP-2 recruitment, PD-1 reporter Jurkat cells, Ig-tethered test article on anti-human IgG coated plates: 5.69 nM
Substance: LY3462817 (antibody)
